{"source": "paper PMC8121907", "key": {"[1]": {"biological_target": "activated Vip3Bc1 (Vip3Bc1^act), trypsin-digested Vip3Bc1 (Bacillus thuringiensis)", "assay": "cryo-EM structure; single particle cryoEM of trypsin-digested Vip3Bc1^act, tilted collection, C4 symmetry applied, global resolution 4.8 Å; model built by homology"}, "[2]": {"biological_target": "Vip3Bc1 (wild type, full length, unprocessed) (Bacillus thuringiensis)", "assay": "SEC; Superose 6 increase 10/300 GL, 25 mM TrisHCl pH 7.5, 150 mM NaCl; undigested Vip3Bc1 loaded at 1 mg/mL"}, "[3]": {"biological_target": "Vip3Bc1 (wild type, full length, unprocessed) (Bacillus thuringiensis)", "assay": "cryo-EM structure; single particle cryoEM of undigested Vip3Bc1, C2 symmetry applied, global resolution 3.9 Å"}}, "data": [{"substance": "activated Vip3Bc1 (Vip3Bc1^act), trypsin-digested Vip3Bc1 (complex)", "values": [{"measurement": "stoichiometry N", "setting": "[1]", "value": 4}]}, {"substance": "Vip3Bc1 (wild type, full length, unprocessed) (natural protein)", "values": [{"measurement": "stoichiometry N", "setting": "[2]", "value": 4}, {"measurement": "stoichiometry N", "setting": "[3]", "value": 4}]}]}
